What all share (assay): cell-based or functional assay
The target in experiment [1] is HIV-1 Env of pseudovirus MGRM-F1-023 (clade F) (HIV-1).
Experiment [2] has as its target HIV-1 MGRM-AG-008 Env (pseudovirus) (HIV-1).
In experiment [3] the target is HIV-1 Env of pseudovirus MGRM-F1-020 (clade F) (HIV-1).
In experiment [4] the target is HIV-1 MGRM-AG-011 Env (pseudovirus) (HIV-1).
Experiment [5] addresses HIV-1 Env of isolate 92RW020 (clade A pseudovirus) (HIV-1).
The target of experiment [6] is HIV-1 envelope glycoprotein (Env) of isolate 93IN905 (HIV-1).
The target in experiment [7] is HIV-1 Env of isolate MGRM-Chronic-B-008, clade B (HIV-1).
In experiment [8] the target is HIV-1 envelope glycoprotein (Env) of isolate MGRM-C-002 (HIV-1).
Experiment [9] deals with HIV-1 envelope glycoprotein (Env) of isolate MGRM-C-017 (HIV-1).
Experiment [10] deals with HIV-1 Env of pseudovirus MGRM-F1-018 (clade F) (HIV-1).
In experiment [11] the target is HIV-1 Env of isolate 92UG031 (clade A pseudovirus) (HIV-1).

Where only a bound is given, the exact number is not on record here.

1443_C16 (PG16) (TCN-116) (antibody), sequence (VH): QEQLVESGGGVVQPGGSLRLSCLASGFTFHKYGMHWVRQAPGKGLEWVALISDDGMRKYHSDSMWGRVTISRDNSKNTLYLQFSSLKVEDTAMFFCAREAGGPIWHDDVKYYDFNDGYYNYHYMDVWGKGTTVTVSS
1443_C16 (PG16) (TCN-116) (antibody), sequence (VL): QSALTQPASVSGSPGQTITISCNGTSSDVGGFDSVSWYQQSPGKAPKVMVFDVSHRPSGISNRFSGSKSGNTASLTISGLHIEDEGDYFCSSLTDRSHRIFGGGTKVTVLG

For the substance 4E10 (antibody), the figures for the IC50 in [1], in experiment [3] and in experiment [10] were 0.44 µg/mL, 0.66 µg/mL and 3.6 µg/mL, respectively. Further, the IC50 (µg/ml), pseudovirus neutralization in experiment [2] was 1.48 µg/mL; in [4], 1.36 µg/mL; in [5] it was 4.54 µg/mL; in experiment [6] it was 1.26 µg/mL; in experiment [7], 16.7 µg/mL; in experiment [8] it was 18.2 µg/mL. Further, the IC50 (µg/ml), pseudovirus neutralization in experiment [9] was determined as 1.47 µg/mL; in experiment [11], 4.94 µg/mL.

As to 1443_C16 (PG16) (TCN-116) (antibody), the IC50 is greater than 50 µg/mL in experiment [1], 4.35 µg/mL in experiment [3] and 0.01 µg/mL in experiment [10]. Also, the IC50 (µg/ml), pseudovirus neutralization in [2] was 0.002 µg/mL; in experiment [4], 0.002 µg/mL; in experiment [5], 0.28 µg/mL; in experiment [6], 0.25 µg/mL; in [7] it was 0.73 µg/mL; in [8] it was 28.3 µg/mL. Further, the IC50 (µg/ml), pseudovirus neutralization in experiment [9] is 1.8 µg/mL; in experiment [11] it was 0.43 µg/mL.

For 2F5 (antibody), the values for the IC50 in experiment [1], in experiment [3] and in experiment [10] were 1.78 µg/mL, 0.59 µg/mL and 3.91 µg/mL, respectively. For the same substance, the IC50 (µg/ml), pseudovirus neutralization is 0.54 µg/mL in experiment [2]; greater than 50 µg/mL in [4]; 3.36 µg/mL in experiment [5]; greater than 50 µg/mL in experiment [6]; greater than 50 µg/mL in experiment [7]; 44.7 µg/mL in [8]. Further, the IC50 (µg/ml), pseudovirus neutralization was greater than 50 µg/mL in experiment [9] and 3.81 µg/mL in experiment [11].

As usually defined, the IC50 is the point on the concentration scale where inhibition reaches its midpoint. Read a high IC50 as weaker potency in that assay.

The record behind these values is patent US20240132578A1.
